# Measured values reported in the DeepSol protein solubility set.
# Test: soluble on expression in E. coli; label from the status in PepcDB or PDB records
row,Sequence,soluble on expression in E. coli
1,MVKIGVCGPVGSGKTALIEALTRHMSKDYDMAVITNDIYTKEDAEFMCKNSVMPRERIIGVETGGCPHTAIREDASMNLEAVEEMHGRFPNLELLLIESGGDNLSATFNPELADFTIFVIDVAEGDKIPRKGGPGITRSDLLVINKIDLAPYVGADLKVMERDSKKMRGEKPFIFTNIRAKEGLDDVIAWIKRNALLEDLEHHHHHH,soluble
2,GSHHHHHHSSGLVPRGSFNELNAINENIRDDLSALLKSDFFKYFRLDLYKQCSFWDANDGLCLNRACSVDVVEDWDTLPEYWQPEILGSFNNDTMKEADDSDDECKFLDQLCQTSKKPVDIEDTINYCDVNDFNGKNAVLIDLTANPERFTGYGGKQAGQIWSTIYQDNCFTIGETGESLAKDAFYRLVSGFHASIGTHLSKEYLNTKTGKWEPNLDLFMARIGNFPDRVTNMYFNYAVVAKALWKIQPYLPEFSFCDLVNKEIKNKMDNVISQLDTKIFNEDLVFANDLSLTLKDEFRSRFKNVTKIMDCVQCDRCRLWGKIQTTGYATALKILFEINDADEFTKQHIVGKLTKYELIALLQTFGRLSESIESVNMFEKMYGKRLLER,soluble
3,MGSDKIHHHHHHMAHEMIGTQIVTERLVALLESGTEKVLLIDSRPFVEYNTSHILEAININCSKLMKRRLQQDKVLITELIQHSAKHKVDIDCSQKVVVYDQSSQDVASLSSDCFLTVLLGKLEKSFNSVHLLAGGFAEFSRCFPGLCEGKSTLVPTCISQPCLPVANIGPTRILPNLYLGCQRDVLNKELMQQNGIGYVLNASNTCPKPDFIPESHFLRVPVNDSFCEKILPWLDKSVDFIEKAKASNGCVLVHCLAGISRSATIAIAYIMKRMDMSLDEAYRFVKEKRPTISPNFNFLGQLLDYEKKIKNQTGASGPKSKLKLLHLEKPNEPVPAVSEGGQKSETPLSPPCADSATSEAAGQRPVHPASVPSVPSVQPSLLEDSPLVQALSGLHLSADRLEDSNKLKRSFSLDIKSVSYSASMAASLHGFSSSEDALEYYKPSTTLDGTNKLCQFSPVQELSEQTPETSPDKEEASIPKKLQTARPSDSQSKRLHSVRTSSSGTAQRSLLSPLLRSGSVEDNYHTSFLFGLSTSQQHLTKSAGLGLKGWHSDILAPQTSTPSLTSSWYFATESSHFYSASAIYGGSASYSAYSCSQLPTCGDQVYSVRRRQKPSDRADSRRSWHEESPFEKQFKRRSCQMEFGESIMSENRSREELGKVGSQSSFSGSMEIIEVS,not soluble
4,AQDMVSPPPPIADEPLTVNTGIYLIECYSLDDKAETFKVNAFLSLSWKDRRLAFDPVRSGVRVKTYEPEAIWIPEIRFVNVENARDADVVDISVSPDGTVQYLERFSARVLSPLDGRRTESDSQTLHIYLIVRSVDTRNIVLAVDLEKVGKNDDVFLTGWDIESFTAVVKPANFALEDRLESKLDYQLRISRQGGHHHHHH,soluble
5,MLTIKNLHASVHNNQILRGVNLTINAGEVHAIMGPNGSGKSTLASVLAGREDYAIVDGDVRYFDEDLFELSPEDRAAKGLFLAFQYPVEIPGVNNLYFLKTAVNSIRKTRGEAPFDAIDLMGLVKEKLALVDMDDKFLKRSVNEGFSGGEKKRNEILQMLMLDPRLAILDETDSGLDIDALQTVAKGVNSLRNKERAILLVTHYQRLLDYIKPDFVHVLVNGRIVLSGDQSLALELEKKGYGWL,soluble
6,MAKILVAGKIPEIGLELLKDHDVEMYDKEELISLDELTERVKDKDALLSLLSTKVTKEVIDAAPSLKIVANYGAGYDNIDYTYAGEKGIAVTNTPKVSTEATAELTFALLLAAARRIPEGDTLCRTTGFNGWAPLFFLGREVHGKTIGIIGLGEIGKAVAKRAKAFGMNILYTGPNRKPEAESELEATYVTLEELLQTADFITINCAYNPKLHHMIDEEQFKMMKKTAYIVNASRGPIMHEAALAHALKTNEIEGAALDVFEFEPKITEELKGLKNVVLAPHVGNATFETRDAMAEMAVRNILAVLKGEEPVTPVNQKVFVTK,soluble
7,GSPNSTAEPTVAARPQQIDALRTLIRLGSLHTPMVVRTAATLRLVDHILAGARTVKALAARTDTRPEALLRLIRHLVAIGLLEEDAPGEFVPTEVGELLADDHPAAQRAWHDLTQAVARADISFTRLPDAIRTGRPTYESIYGKPFYEDLAGRPDLRASFDSLLACDQDVAFDAPAAAYDWTNVRHVLDVGGGKGGFAAAIARRAPHVSATVLEMAGTVDTARSYLKDEGLSDRVDVVEGDFFEPLPRKADAIILSFVLLNWPDHDAVRILTRCAEALEPGGRILIHERDDLHENSFNEQFTELDLRMLVFLGGALRTREKWDGLAASAGLVVEEVRQLPSPTIPYDLSLLVLAPAATGA,soluble
8,MGYIVDISKWNGNINWDVAAPQLDFVIARVQDGSNYIDPLYKSYVQAMKTRNIPFGNYAFCRFISIADAKKEAQDFWNRGDKSATVWVADVEVKTMDDMIAGTQAFIDELRRLGAKKVGLYVGHHMYGPFGMANVKSDFVWIPRYGGNKPAYPCDIWQYTETGNVPGIGKCDLNQLIGNKPLSWFTESVPKQENIQAQVSKQNIIQSGAFSPYETPDVMGALTSLKMTATFILQSDGLTYFVTEPTSDTQLNALKSWLDRKGWWYEVK,not soluble
9,APRSVAMVVPQGSDIRQLSDLRGKRIALNKGSNVHWLLLQILEDAGLGLNDVRVVYTPPKYPLTASDYLAVDAWMMWDPLLSDAEHTGELRVVASGEGRVNNHQFYLSRRDYLAQHGDIMRRLLTELTHTGQFIDSHRGEAARLLSAELGI,not soluble
10,MNDQYHRAARDGYLELLKEATRKELNAPDEDGMTPTLWAAYHGNLESLRLIVSRGGDPDKCDIWGNTPLHLAASNGHLHCLSFLVSFGANIWCLDNDYHTPLDMAAMKGHMECVRYLDSIAAKQSSLNPKLVGKLKDKAFREAERRIRECAKLQRRHHERMERRYRRELAERSDTLSFSSLTSSTLSRRLQHLALGSHLPYSQATLHGTARGKTKMQKKLERRKQGGEGTFKVSEDGRKSARSLSGLQLGSDVMFVRQGTYANPKEWGRAPLRDMFLSDEDSVSRATLAAEPAHSEVSTDSGHDSLFTRPGLGTMVFRRNYLSSGLHGLGREDGGLDGVGAPRGRLQSSPSLDDDSLGSANSLQDRSCGEELPWDELDLGLDEDLEPETSPLETFLASLHMEDFAALLRQEKIDLEALMLCSDLDLRSISVPLGPRKKILGAVRRRRQAMERPPALEDTEL,soluble
11,MGSDKIHHHHHHVLNNLGQTRYVVPRPHPQLVTTRTLVMQRIDGFNFDDVTGMQDAGIDTEDVIRTGMVAFMEGALIHGIFHGDLHGGNLFVLPDGRTALLDFGITARLDDDRRRAFLRLMMTATTNDLTGQMAALRDLGALPLDTDLQAVIRDLRLDEAPIDPTTLSGEEMVAEVQRVVKALLSYGARLPKELMLYVKNMVFLDGAIARLAPDLDLLAEVANISMMFASRHGERLMTEIGIDAANMQVNLDSVKAGFGVDLSTDRLTYRELQERRELIQKRMRSHVERTRRSAN,not soluble
12,MRLLHTMLRVGDLQRSIDFYTKVLGMKLLRTSENPEYKYSLAFVGYGPETEEAVIELTYNWGVDKYELGTAYGHIALSVDNAAEACEKIRQNGGNVTREAGPVKGGTTVIAFVEDPDGYKIELIEEKDAGRGLGN,soluble
13,MGSDKIHHHHHHMQAKLTKKEFIEWLKTSEGKQFNVDLWYGFQCFDYANAGWKVLFGLLLKGLGAKDIPFANNFDGLATVYQNTPDFLAQPGDMVVFGSNYGAGYGHVAWVIEATLDYIIVYEQNWLGGGWTDRIEQPGWGWEKVTRRQHAYDFPMWFIRPNFKSETAPRSIQSPTQASKKETAKPQPKAVELKIIKDVVKGYDLPKRGGNPKGIVIHNDAGSKGATAEAYRNGLVNAPLSRLEAGIAHSYVSGNTVWQALDESQVGWHTANQLGNKYYYGIEVCQSMGADNATFLKNEQATFQECARLLKKWGLPANRNTIRLHNEFTSTSCPHRSSVLHTGFDPVTRGLLPEDKQLQLKDYFIKQIRVYMDGKIPVATVSNESSASSNTVKPVASAWKRNKYGTYYMEESARFTNGNQPITVRKIGPFLSCPVAYQFQPGGYCDYTEVMLQDGHVWVGYTWEGQRYYLPIRTWNGSAPPNQILGDLWGEIS,not soluble
14,MAGGFGVGKTTFVGAVSEIAPLSTEELLTTVGAATDNLDGIENKVETTVAMDFGRITLDPEHVLYLFGTPGQQRFWFMWDELSEGALGAVILADTRRLEDCFAAVDFFEQRGLAFIVAINDFDGGYRYDPAEVRAAIDLDPHIPVVRCDARISSSGVQTLLTLVRHLLAHAPATAPSHGAHTLEHHHHHH,not soluble
15,MSNTQHKLDKTRPPRVQITYDVETGDAETAKELPLVIGVLGEYSSSEKPLRERKFISIDKDNFDEVMASMSPTAHFMVDSVIPGNEGKLDVELRFSCKDDFSPDNVIQQVECLRKLSELRLHLCDLRNRAASNEKLKEKLQELLVTTNGNPENDESKE,not soluble
16,VFPSNATFGMGDRVRKKSGAAWQGQIVGWYCTNLTPEGYAVESEAHPGSVHIYPVAALERIN,soluble
17,MGSDKIHHHHHHMLLNVKQDFCLAGPGYLLNHSVGRPLKSTEQALKQAFFAPWQESGREPWGQWLGVIDNFTAALASLFNGQPQDFCPQVNLSSALTKIVMSLDRLTRDLTRNGGAVVLMSEIDFPSMGFALKKALPASCELRFIPKSLDVTDPNVWDAHICDDVDLVFVSHAYSNTGQQAPLAQIISLARERGCLSLVDVAQSAGILPLDLAKLQPDFMIGSSVKWLCSGPGAAYLWVNPAILPECQPQDVGWFSHENPFEFDIHDFRYHPTALRFWGGTPSIAPYAIAAHSIEYFANIGSQVMREHNLQLMEPVVQALDNELVSPQEVDKRSGTIILQFGERQPQILAALAAANISVDTRSLGIRVSPHIYNDEADIARLLGVIKANR,not soluble
18,MGKITGFLEIERHDRKYTPVAERVKHFHEFVVPLTERETRDQAARCMNCGIPYCHGTGSVAPGTPGCPVNNQIPDFNDLVYQGNWEEASRNLHSTNNFPEFTGRICPAPCEASCTLNIDDNPVTIKTIECAIVDRAWDNGWLKPEVASVKTGKKVAVIGSGPAGMACAQQLARAGHDVHLFEKFAKAGGLLRYGIPDFKMEKGIIDRRVKQMEGEGVTFHYNSHVGADGNVDPREMLNEYDAVALTGGAEAPRDLPIPGRDLQGIHYAMDFLPQQNRRVSEEPLNGVTEILAGGKHVVVIGGGDTGSDCIGTSLRQGALSVTQLEIMPAPPERENKGLTWPNWPLKMRTSSSQAEGAIREFAVLTQKFSGENGQVKKLHCVRVDDKFKPIAGTEFELDAELVLLAMGFVHPVHEGLLKLLSVELDPRGNVKANTLDYQTSRPNVFTAGDMRRGQSLVVWAIREGRLCARSIDTFLMGKTDLPRLEHHHHHH,soluble
19,MGSDKIHHHHHHMLDVVANQDKSIVVKQLRYGRDNEVLVVDEWQLHPAEHWAIFATDSYCGSLLGRILTGDIQPDEGTIAGLPQRIGWVSLGLQQVLLERELEKDELDYGSSVEFLVLECCQDAAQLAPLLQKVGLEPLRLRGFRQLSTGETRRVMLARALAMLPQLLILDDPYAGLDVEHQASLSELLSEVAEHTQLLIITSRQEELPPCISHVALFNGEMLKSGQSVHKLSQPMSIEQWHNHPVMAQLNALSAQRSNELLALMERQRHNAEAFDPLVEIKNGKVEYVSGLIFSGVNWRIEAGQHWQVRGPNGCGKSTLLGLILGDHPQCYSNDITLFGRPRGSGESIWQIKQRIGIVSSALHLQYRVSCSVLDVLLSGFFDSIGLYQKPTKPQLDLAKEWLAILHMTGLASTSFKKLDYGQQRLLLIGRALIKQPLLLILDEPYQGLDFINRTLVMRALKMIAEHHLSQLLYVSHHREDALPAIHHFVDFIKQGDGYSVQVSDSESKD,not soluble
20,MLDDCEASGFINDKRYAELLVRSNIARGHGPIRIRQAIAQKGLTKDCIEAALIATDYDWFELAKAKAKAKAIKKYGVPKVTEVKGSQSRELIAKEKAKRVRFLLSQGFSYEQVIYALDYDPLEDNDD,not soluble
